Molecular target: recombinant human CD38 his tagged (extracellular domain) (human) (UniProt P28907)
Test: ForteBio BLI

Kd: 9 nM
Substance: IB4 (reference monoclonal agonistic mouse anti-human CD38 antibody)
